Experimental data published in the supplement of paper PMC9233669.
This sample holds only a part of the variants without activity.

What was measured:
[1] = system: biotinyl-Val-oxazolone; test: self-aminoacylation, catalytic enhancement (BVO) (fold over background); higher = more active; k-Seq, kA / k0A0; sequences stand for … in GGGAAUGGAUCCACAUCUACGAAUUC…UUCACUGCAGACUUGACGAAGCUG
How it was run: (§1)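 Working in 50 μL HEPES/NaCl/KCl/MgCl2/CaCl2 buffer with 5% acetonitrile at pH 6.9–7.0, mutagenized RNA pools (0.43 μM; 21-nt variable region) were reacted with 2–1250 μM of each biotinyl-aminoacyl-oxazolone for 90 minutes at room temperature. Streptavidin capture followed, with quantification by triplicate qPCR and Illumina sequencing. Catalytic enhancement is reported as median kA over the uncatalyzed rate, the low-activity peak of a bimodal Gaussian fit to the data.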

[2] = system: biotinyl-Leu-oxazolone; test: self-aminoacylation, catalytic enhancement (BLO) (fold over background); higher = more active; k-Seq, kA / k0A0; sequences stand for … in GGGAAUGGAUCCACAUCUACGAAUUC…UUCACUGCAGACUUGACGAAGCUG
How it was run: as §1

[3] = system: biotinyl-Trp-oxazolone; test: self-aminoacylation, catalytic enhancement (BWO) (fold over background); higher = more active; k-Seq, kA / k0A0; sequences stand for … in GGGAAUGGAUCCACAUCUACGAAUUC…UUCACUGCAGACUUGACGAAGCUG
How it was run: as §1

[4] = system: biotinyl-Phe-oxazolone; test: self-aminoacylation, catalytic enhancement (BFO) (fold over background); higher = more active; k-Seq, kA / k0A0; sequences stand for … in GGGAAUGGAUCCACAUCUACGAAUUC…UUCACUGCAGACUUGACGAAGCUG
How it was run: as §1

[5] = system: biotinyl-Met-oxazolone; test: self-aminoacylation, catalytic enhancement (BMO) (fold over background); higher = more active; k-Seq, kA / k0A0; sequences stand for … in GGGAAUGGAUCCACAUCUACGAAUUC…UUCACUGCAGACUUGACGAAGCUG
How it was run: as §1

[6] = system: biotinyl-Ile-oxazolone; test: self-aminoacylation, catalytic enhancement (BIO) (fold over background); higher = more active; k-Seq, kA / k0A0; sequences stand for … in GGGAAUGGAUCCACAUCUACGAAUUC…UUCACUGCAGACUUGACGAAGCUG
How it was run: as §1

Sequence	self-aminoacylation [1]	self-aminoacylation [2]	self-aminoacylation [3]	self-aminoacylation [4]	self-aminoacylation [5]	self-aminoacylation [6]
CUACUCUAAACAAUCGGUCUG [Fam1A.1 aminoacylation ribozyme variant]	0.873	0.727	0.651	0.77	0.776	0.808
AUUCACCUAGGGCAUCGCGUG [Fam2.2 aminoacylation ribozyme variant]	3.89	2.92	2.95	26.7	3.5	3.12
AUGCACCUAGGUUAUCGGGUG [Fam2.2 aminoacylation ribozyme variant]	3.11	4.46	4.81	32.7	3.37	3.4
AUUACCCUGGUCAUCGAUUGU [Fam2.1 aminoacylation ribozyme variant]	0.785	0.736	0.386	0.73	0.73	0.753
AUACACCUAGGUCAUCGGAUG [Fam2.2 aminoacylation ribozyme variant]	0.946	0.994	0.96	0.387	0.978	1.03
AUUAAGCUGGUCAUCGAGUGA [Fam2.1 aminoacylation ribozyme variant]	2.36	3.05	3.85	4.33	3.07	2.77
CUACUUCAAAUAAUCAGUCUG [Fam1A.1 aminoacylation ribozyme variant]	0.935	0.891	3.71	8.19	0.717	0.956
AUUACCCUAGUCAUCGAAUGA [Fam2.1 aminoacylation ribozyme variant]	1.06	0.924	0.469	0.87	1.02	0.919
ACUACCCUGGUCAUCGGGUGA [Fam2.1 aminoacylation ribozyme variant]	20.9	50.1	57.6	293	48	20.6
AUUCACCUAGUUCAUCGAGUG [Fam2.2 aminoacylation ribozyme variant]	1.04	1.31	1.25	1.17	1.21	0.949
AACUUUGCUAAUGGUCGCAAG [Fam3.1 aminoacylation ribozyme variant]	2.43	2.64	3.24	9.47	2.44	2.47
CUACCUCAACCAAUCGGUCUG [Fam1A.1 aminoacylation ribozyme variant]	0.891	0.671	0.886	1.08	0.811	0.766
AAGUUUGCUAAUGGUCGCCAG [Fam3.1 aminoacylation ribozyme variant]	0.896	1.11	1.52	5.81	1.09	1.1
AUUACCCUGGUCACCGCGUGA [Fam2.1 aminoacylation ribozyme variant]	7.05	16.7	16.7	98.1	14.1	6.07
AUGCUUGCUAAUAGUCGCAAG [Fam3.1 aminoacylation ribozyme variant]	1.32	1.33	1.99	3.19	1.61	1.81
CGACACUUCAAGCAAUCGGUA [Fam1B.1 aminoacylation ribozyme variant]	1.84	1.41	2.9	2.02	1.44	1.86
CCACACUUCAUGCAAUCGAUC [Fam1B.1 aminoacylation ribozyme variant]	0.721	0.489	0.336	0.923	0.528	0.552
CUACUUCAAUCAAUCUGUCUG [Fam1A.1 aminoacylation ribozyme variant]	0.597	0.57	0.721	1.25	0.539	0.599
CUACAUCGAACAAUCGGUCUG [Fam1A.1 aminoacylation ribozyme variant]	0.942	0.946	1.17	1.04	0.922	0.909
CUACUCCAAACAAUCGGACUG [Fam1A.1 aminoacylation ribozyme variant]	0.711	0.6	0.909	1.13	0.762	0.74
UUUAACCUAGGUCAUCGGGUG [Fam2.2 aminoacylation ribozyme variant]	4.48	7.42	7.19	36.3	5.87	5.19
CUACCUCAAACAAUCGUUCUG [Fam1A.1 aminoacylation ribozyme variant]	0.672	0.588	0.863	0.62	0.525	0.711
AUUCACUUAGGUCAUCGGGGG [Fam2.2 aminoacylation ribozyme variant]	1.95	2.74	2.16	2.12	2.13	2.04
AUUCACCUUGGUGAUCGGGUG [Fam2.2 aminoacylation ribozyme variant]	3.7	4.24	5.35	23.8	3.12	3.1
AAGUUCGCUAAUAGUCACAAG [Fam3.1 aminoacylation ribozyme variant]	1.25	1.6	1.64	3.01	1.56	1.59
CUACUUAAAACAGUCGGUCUG [Fam1A.1 aminoacylation ribozyme variant]	0.78	1.05	0.454	0.624	0.742	0.799

Sequence	self-aminoacylation [1]	self-aminoacylation [2]	self-aminoacylation [3]	self-aminoacylation [4]	self-aminoacylation [5]	self-aminoacylation [6]
AAGUAUGCUAAUAGCCGCAAG [Fam3.1 aminoacylation ribozyme variant]	1.05	1.16	2.58	5.73	1.06	1.49
CUACUUCAAACAACCGGUCUU [Fam1A.1 aminoacylation ribozyme variant]	0.899	0.871	1.05	0.875	0.686	1.32
AUUCACCAAGGUCAGCGGGUG [Fam2.2 aminoacylation ribozyme variant]	3.95	5.4	4.65	29.3	4.83	4.01
AUUUAUCUAGGUCAUCGGGUG [Fam2.2 aminoacylation ribozyme variant]	2.45	4.97	4.3	20.1	3.91	3.08
AUAACCUUGGUCAUCGAGUGA [Fam2.1 aminoacylation ribozyme variant]	3.3	6.06	7.25	27.1	5.95	2.94
UUUCACCUAGUUCAUCGGGUG [Fam2.2 aminoacylation ribozyme variant]	3.09	2.99	3.92	18.6	2.6	2.44
ACUCUCCUAGGUCAUCGGGUG [Fam2.2 aminoacylation ribozyme variant]	5.61	10.2	8.31	49.4	8.52	5.49
AAGGUUGCUAAUAGUCGCUAG [Fam3.1 aminoacylation ribozyme variant]	1.03	1.19	1.27	1.54	1.03	1.3
AAGUUUGCUAAGUGUCGCAAG [Fam3.1 aminoacylation ribozyme variant]	0.897	0.786	0.987	1.9	0.887	0.902
CUACUUUAAACAAUCGGUCUU [Fam1A.1 aminoacylation ribozyme variant]	0.885	0.738	0.6	0.805	1.09	0.888
CCACACAUCAAGCAAUCGGAC [Fam1B.1 aminoacylation ribozyme variant]	1.03	0.808	0.906	0.446	0.748	0.897
AUCACCGUGGUCAUCGAGUGA [Fam2.1 aminoacylation ribozyme variant]	4.01	6.15	7.75	52.5	7.05	3.99
AAGUUUGCUAAUUGUCGCAUG [Fam3.1 aminoacylation ribozyme variant]	1.07	1.32	1.49	1.11	1.18	0.982
AUUACCCUGGUAAGCGAGUGA [Fam2.1 aminoacylation ribozyme variant]	3.21	4.55	6.48	42.1	5.79	2.82
CCACACGCCAAGCAAUCGGUC [Fam1B.1 aminoacylation ribozyme variant]	1.23	0.862	0.555	0.829	1.29	0.961
AUUAUCCUGGUCAUCGGGUGA [Fam2.1 aminoacylation ribozyme variant]	7.7	17.1	17.4	69.6	14.1	7.1
CCACACUUCAAUCAAUCGUUC [Fam1B.1 aminoacylation ribozyme variant]	0.607	0.506	0.469	1.04	0.423	0.622
ACUCACCCAGGUCAUCGGGUG [Fam2.2 aminoacylation ribozyme variant]	4.51	5.25	4.81	26.2	4.37	4
CCACACUUCAAGCAAACGAUC [Fam1B.1 aminoacylation ribozyme variant]	0.589	0.422	0.585	0.772	0.44	0.513
AAUCACCUAGCUCAUCGGGUG [Fam2.2 aminoacylation ribozyme variant]	3.17	2.31	3.68	17.7	2.82	2.33
CUACUUCAAACAACCGGUCCG [Fam1A.1 aminoacylation ribozyme variant]	1.01	0.962	1	0.643	0.703	0.993
AUUACCCGGGUCAUCGAGUGG [Fam2.1 aminoacylation ribozyme variant]	1.81	1.92	2.45	10.1	1.63	1.25
CCACACUGCAAGCAAUCGGCC [Fam1B.1 aminoacylation ribozyme variant]	5.56	1.99	3.9	20.5	2.93	3.29
AUUAGGCUGGUCAUCGAGUGA [Fam2.1 aminoacylation ribozyme variant]	2.48	2.85	4.23	8.97	3.01	2.53
CAACACUACAAGCAAUCGGUC [Fam1B.1 aminoacylation ribozyme variant]	1.01	0.914	0.713	0.958	0.956	0.955
